Assays:
Reb1p (His6-Reb1p) [1] = target: T1, Reb1p (His6-Reb1p) (Saccharomyces cerevisiae RS453, UniProt P21538 1-810); assay: competition; 10 mM Mg2+; 0.5 ug Reb1p, 4-16 pmol unlabeled competitor against 4 pmol labeled wild type probe; 10 mM Tris-HCl pH 8.0, 10 mM MgCl2, 50 mM KCl, 1 mM DTT, 0.025 mg/ml poly(dI-dC), 0.2 mg/ml BSA, 0.04% IGEPAL CA-630, 10% glycerol; 15 min, room temperature; 5% PAGE in 0.5x TBE; details: protein: recombinant; tags: N-terminal His6 (pET-15b); blunt
T1 sequence: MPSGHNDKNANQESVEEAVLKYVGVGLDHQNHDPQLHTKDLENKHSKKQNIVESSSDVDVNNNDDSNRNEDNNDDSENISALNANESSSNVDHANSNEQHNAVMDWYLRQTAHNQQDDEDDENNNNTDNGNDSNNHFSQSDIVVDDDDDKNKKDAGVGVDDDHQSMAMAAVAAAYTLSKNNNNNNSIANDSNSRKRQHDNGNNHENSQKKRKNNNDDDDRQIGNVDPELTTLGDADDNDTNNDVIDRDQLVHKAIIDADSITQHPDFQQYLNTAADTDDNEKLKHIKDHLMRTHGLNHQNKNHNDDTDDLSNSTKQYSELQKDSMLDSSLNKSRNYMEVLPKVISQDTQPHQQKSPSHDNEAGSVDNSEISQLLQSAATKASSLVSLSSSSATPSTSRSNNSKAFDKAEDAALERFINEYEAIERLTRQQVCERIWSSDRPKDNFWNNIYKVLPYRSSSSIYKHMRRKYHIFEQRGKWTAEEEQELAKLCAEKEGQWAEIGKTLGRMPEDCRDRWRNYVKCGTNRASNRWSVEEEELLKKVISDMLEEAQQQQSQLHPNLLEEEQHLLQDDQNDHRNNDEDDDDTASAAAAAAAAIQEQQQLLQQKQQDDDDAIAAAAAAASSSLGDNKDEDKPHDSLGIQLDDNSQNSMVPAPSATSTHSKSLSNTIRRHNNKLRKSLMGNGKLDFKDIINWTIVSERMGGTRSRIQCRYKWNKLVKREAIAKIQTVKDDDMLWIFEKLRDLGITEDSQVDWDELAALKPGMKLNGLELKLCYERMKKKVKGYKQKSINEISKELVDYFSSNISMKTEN

Reb1p (His6-Reb1p) [2] = target: T1, Reb1p (His6-Reb1p); assay: EMSA; 10 mM Mg2+; 0.2-1.0 ug Reb1p, 4 pmol probe; 10 mM Tris-HCl pH 8.0, 10 mM MgCl2, 50 mM KCl, 1 mM DTT, 0.025 mg/ml poly(dI-dC), 0.2 mg/ml BSA, 0.04% IGEPAL CA-630, 10% glycerol; 15 min, room temperature; 5% PAGE in 0.5x TBE; details: protein: recombinant; tags: N-terminal His6 (pET-15b); label: 32P (alpha-32P dTTP, Klenow); blunt

B1: unlabeled DGK1 wild type competitor (dsDNA)
DNA 1: AGGGTCCATAGCGGGTAACAAATTATTGG
DNA 2: CCAATAATTTGTTACCCGCTATGGACCCT
Reb1p (His6-Reb1p) [1]
  binding result: binds

B2: DGK1 promoter Reb1p site wild type (dsDNA)
DNA 1: AGGGTCCATAGCGGGTAACAAATTATTGG
DNA 2: CCAATAATTTGTTACCCGCTATGGACCCT
Reb1p (His6-Reb1p) [2]
  binding result: binds

Source: publication PMC3790011, “Transcription Factor Reb1p Regulates DGK1-encoded Diacylglycerol Kinase and Lipid Metabolism in Saccharomyces cerevisiae*”
